How the values were obtained:
[1] = target: T1, 14-3-3ζ (human (endogenous in HEK 293), UniProt P63104 1-245); assay: co-IP; endogenous proteins; HEK 293 lysate precipitated with 14-3-3ζ antibody, protein A agarose; Trx by Western blot; cells treated with buffer, 200 pM Klotho or NAC for 40 min; Trx released from the beads only with DTT, 2-ME or THP; conditions: partners not purified
T1 construct: 14-3-3ζ, endogenous in HEK 293 cells; Klotho treatment of the cells raises phosphorylation at Ser-58 and the monomer level; the phosphorylated form was not isolated as a molecule of its own; also called 14-3-3zeta; endogenous 14-3-3ζ; source: endogenous, HEK 293 lysate
T1 sequence (looked up): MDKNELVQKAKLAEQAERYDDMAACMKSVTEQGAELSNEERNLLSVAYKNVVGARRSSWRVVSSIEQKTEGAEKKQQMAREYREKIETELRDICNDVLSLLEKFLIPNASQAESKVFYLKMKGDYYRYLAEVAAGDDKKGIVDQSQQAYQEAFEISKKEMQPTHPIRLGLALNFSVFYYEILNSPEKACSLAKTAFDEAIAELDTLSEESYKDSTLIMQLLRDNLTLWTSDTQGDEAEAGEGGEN

[2] = target: GST-tagged 14-3-3ζ dimer deficient mutant (Dm) (UniProt P63104); assay: pull-down; lysates of HEK 293 cells transfected with GST-14-3-3ζ Wt or Dm adsorbed onto glutathione sepharose, binding buffer 20 mM Tris-Cl pH 7.5, 2 mM EDTA, 1 mM EGTA, 80 mM NaCl; endogenous Trx by Western blot; cells treated with buffer or secreted Klotho for 40 min

fold increase of bound Trx, Klotho-treated versus buffer-treated cells [1]: ~2 fold | fold increase of bound Trx relative to 14-3-3ζwt [2]: 2 fold
B1: thioredoxin (Trx) (natural protein, human (endogenous in HEK 293), UniProt P10599 1-105, looked up)
chain: MVKQIESKTAFQEALDAAGDKLVVVDFSATWCGPCKMIKPFFHSLSEKYSNVIFLEVDVDDCQDVASECEVKCMPTFQFFKKGQKVGEFSGANKEKLEATINELV
notes: thioredoxin (Trx), endogenous in HEK 293 cells; active site cysteines named as Cys32/35; Detected by Western blot or iCE with a Trx antibody; source: endogenous, HEK 293 lysate
